The target in assay [1] is CHN-1 (C. elegans).
Target sequence in this assay (main, as listed by the source): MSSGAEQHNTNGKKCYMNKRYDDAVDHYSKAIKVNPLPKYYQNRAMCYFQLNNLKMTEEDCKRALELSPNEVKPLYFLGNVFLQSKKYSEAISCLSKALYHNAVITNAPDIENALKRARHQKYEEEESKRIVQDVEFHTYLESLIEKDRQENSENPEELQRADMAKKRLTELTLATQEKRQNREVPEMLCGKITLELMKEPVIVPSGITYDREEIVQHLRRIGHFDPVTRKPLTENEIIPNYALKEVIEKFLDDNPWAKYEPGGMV
Assay [2] addresses CHN-1 (C. elegans). Put plainly: SEC; S200 Superdex column; CHN-1 alone, UFD-2 alone and CHN-1 + UFD-2 mixed in equal molar ratios. (In general: In gel filtration, larger molecules generally elute earlier.)

Usually stoichiometry N stands for a count of units in the complex or per binding partner.

Sequence of UFD-2 (Q09349 whole entry): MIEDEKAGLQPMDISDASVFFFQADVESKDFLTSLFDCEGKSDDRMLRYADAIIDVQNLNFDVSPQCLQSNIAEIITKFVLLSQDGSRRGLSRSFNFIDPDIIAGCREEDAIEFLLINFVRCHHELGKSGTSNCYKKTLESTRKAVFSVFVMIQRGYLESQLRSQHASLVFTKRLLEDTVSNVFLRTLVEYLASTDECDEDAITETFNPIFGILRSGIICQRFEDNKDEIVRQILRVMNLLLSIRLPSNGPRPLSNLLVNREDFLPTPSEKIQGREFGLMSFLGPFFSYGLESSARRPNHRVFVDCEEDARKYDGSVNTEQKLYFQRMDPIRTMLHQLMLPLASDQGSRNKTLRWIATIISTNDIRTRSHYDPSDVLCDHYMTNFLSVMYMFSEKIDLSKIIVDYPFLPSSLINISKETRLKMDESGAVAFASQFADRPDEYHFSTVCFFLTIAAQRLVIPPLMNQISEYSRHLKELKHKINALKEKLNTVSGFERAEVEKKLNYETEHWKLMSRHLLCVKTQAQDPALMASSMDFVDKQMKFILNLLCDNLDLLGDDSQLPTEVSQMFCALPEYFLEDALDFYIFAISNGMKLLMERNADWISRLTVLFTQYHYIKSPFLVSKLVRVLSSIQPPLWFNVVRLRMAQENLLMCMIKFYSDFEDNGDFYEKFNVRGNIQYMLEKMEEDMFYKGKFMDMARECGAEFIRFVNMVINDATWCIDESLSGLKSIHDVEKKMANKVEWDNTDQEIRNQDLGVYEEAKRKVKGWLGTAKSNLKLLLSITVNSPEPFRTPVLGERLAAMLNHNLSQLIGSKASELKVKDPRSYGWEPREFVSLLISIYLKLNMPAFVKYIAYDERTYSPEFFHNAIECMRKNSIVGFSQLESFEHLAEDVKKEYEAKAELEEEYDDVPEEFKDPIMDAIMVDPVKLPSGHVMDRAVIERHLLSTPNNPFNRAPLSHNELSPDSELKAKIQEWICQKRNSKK

For “UFD-2 (from UniProt Q09349 1-984) (enzyme)”, in the assay with CHN-1 (C. elegans) [1], the CHN-1 auto-ubiquitylation (UBE2D1); UFD-2 titrated at 0.3, 0.65 and 1.3 μM against 1.3 μM CHN-1 was determined as 2 fold.
As for CHN-1 (enzyme), in the assay with CHN-1 (C. elegans) [2], the stoichiometry N came to 2.

For the origin of these results see publication PMC9340540.
